The target of the assay is T1, recombinant human IL-1α (human, UniProt P01583 113-271).
T1 sequence (looked up): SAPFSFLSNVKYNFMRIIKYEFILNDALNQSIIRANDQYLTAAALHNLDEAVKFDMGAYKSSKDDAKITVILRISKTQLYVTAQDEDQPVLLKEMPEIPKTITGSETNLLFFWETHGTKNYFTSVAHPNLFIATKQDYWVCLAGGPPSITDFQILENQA
Put plainly: cell-based or functional assay.

B1: hIL-1a/bDVD1-Ig (bispecific antibody, human IgG1, kappa)
heavy: not shown
light: NIVLTQSPASLAVSLGQRATISCRASESVDSYGNSYMHWYQQKPGQPPKLLIYLASNLESGVPARFSGSGSRTDFTLTIDPVEADDAATYYCQQNNEDPFTFGSGTKLEIKRNIQMTQTTSSLSASLGDRVTISCRASQDISNCLNWYQQKPDGTVKLLIYYTSRLHSGVPSRFSGSGSGTDYSLTISNLEQEDIATYFCQQGKTLPYAFGGGTKLEINRTVAAPSVFIFPPSDEQLKSGTASVVCLLNNFYPREAKVQWKVDNALQSGNSQESVTEQDSKDSTYSLSSTLTLSKADYEKHKVYACEVTHQGLSSPVTKSFNRGEC
Regarding B1, the “neutralizing activity in the MRC-5 bioassay, fold less than the chimeric Abs” value is 3 fold.
